Results reported in article PMC8491169 (Experimental eye research, 2021).

Biological target: full-length recombinant human proteoglycan 4 (rhPRG4) (human, UniProt Q92954 25-1404)
Experiment: SPR

- Kd: 42.1 nM
- koff: 0.000937 s⁻¹
- kon: 22300 M⁻¹ s⁻¹
B1: recombinant human matrix metalloproteinase 9 (rhMMP-9) (enzyme)
chain: APRQRQSTLVLFPGDLRTNLTDRQLAEEYLYRYGYTRVAEMRGESKSLGPALLLLQKQLSLPETGELDSATLKAMRTPRCGVPDLGRFQTFEGDLKWHHHNITYWIQNYSEDLPRAVIDDAFARAFALWSAVTPLTFTRVYSRDADIVIQFGVAEHGDGYPFDGKDGLLAHAFPPGPGIQGDAHFDDDELWSLGKGVVVPTRFGNADGAACHFPFIFEGRSYSACTTDGRSDGLPWCSTTANYDTDDRFGFCPSERLYTQDGNADGKPCQFPFIFQGQSYSACTTDGRSDGYRWCATTANYDRDKLFGFCPTRADSTVMGGNSAGELCVFPFTFLGKEYSTCTSEGRGDGRLWCATTSNFDSDKKWGFCPDQGYSLFLVAAHEFGHALGLDHSSVPEALMYPMYRFTEGPPLHKDDVNGIRHLYGPRPEPEPRPPTTTTPQPTAPPTVCPTGPPTVHPSERPTAGPTGPPSAGPTGPPTAGPSTATTVPLSPVDDACNVNIFDAIAEIGNQLYLFKDGKYWRFSEGRGSRPQGPFLIADKWPALPRKLDSVFEERLSKKLFFFSGRQVWVYTGASVLGPRRLDKLGLGADVAQVTGALRSGRGKMLLFSGRRLWRFDVKAQMVDPRSASEVDRMFPGVPLDTHDVFQYREKAYFCQDRFYWRVSSRSELNQVDQVGYVTYDILQCPED
